In the supplement of paper PMC5998384:

Legend:
[1] = test system: HeLa Kyoto; assay: melting temperature (median over replicates), in situ; higher = more thermally stable
[2] = test system: HeLa Kyoto; assay: solubility in G1/S (NP-40 vs SDS abundance) (log2 ratio); higher = more soluble; conditions: cell cycle stage: G1/S
[3] = test system: HeLa Kyoto; assay: solubility change mitosis vs G1/S (difference of NP-40 vs SDS log2 ratios) (log2 ratio difference); higher = more soluble in mitosis
[4] = test system: HeLa Kyoto; assay: thermal stability score vs G1/S (z-score of summed log2 fold changes over temperatures); higher = more thermally stable than in G1/S
[5] = cell cycle stage: early G1 (4.5 h after nocodazole release)
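For melting temperature (median over replicates), in situ in this document: HeLa Kyoto cells synchronized by double thymidine or nocodazole block, proteins quantified by TMT10plex mass spectrometry, three independent biological replicates.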
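For solubility change mitosis vs G1/S (difference of NP-40 vs SDS log2 ratios) in this document: synchronized HeLa Kyoto cells (double thymidine block for G1/S, nocodazole release for mitosis), protein amounts in NP-40 versus SDS lysates quantified by mass spectrometry, three biological replicates.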
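For solubility in G1/S (NP-40 vs SDS abundance) in this document: HeLa Kyoto cells arrested at G1/S by double thymidine block, proteins quantified by TMT10plex mass spectrometry in mild NP-40 versus SDS extracts, three biological replicates.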
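For thermal stability score vs G1/S (z-score of summed log2 fold changes over temperatures) in this document: synchronized HeLa Kyoto cells, proteins quantified by TMT10plex mass spectrometry, three biological replicates, mitosis taken 0.5 h after nocodazole release, G1/S directly after double thymidine block.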

Sequence | melting temperature ([1]; cell cycle stage: G1/S) [°C] | melting temperature ([1]; cell cycle stage: mitosis) [°C] | solubility in G1/S (log2) [2] | solubility change mitosis (log2) [3] | thermal stability score [4, 5] | thermal stability score ([4]; cell cycle stage: mitosis)
MAAAGAPDGMEEPGMDTEAETVATEAPARPVNCLEAEAAAGAAAEDSGAARGSLQPAPAQPPGDPAAQASVSNGEDAGGGAGRELVDLKIIWNKTKHDVKFPLDSTGSELKQKIHSITGLPPAMQKVMYKGLVPEDKTLREIKVTSGAKIMVVGSTINDVLAVNTPKDAAQQDAKAEENKKEPLCRQKQHRKVLDKGKPEDVMPSVKGAQERLPTVPLSGMYNKSGGKVRLTFKLEQDQLWIGTKERTEKLPMGSIKNVVSEPIEGHEDYHMMAFQLGPTEASYYWVYWVPTQYVDAIKDTVLGKWQYF [UBFD1] | 51.5 | 52.1 | 0.522 | 0.0325 | -0.222 | -0.699
MAAMAPGGSGSGGGVNPFLSDSDEDDDEVAATEERRAVLRLGAGSGLDPGSAGSLSPQDPVALGSSARPGLPGEASAAAVALGGTGETPARLSIDAIAAQLLRDQYLLTALELHTELLESGRELPRLRDYFSNPGNFERQSGTPPGMGAPGVPGAAGVGGAGGREPSTASGGGQLNRAGSISTLDSLDFARYSDDGNRETDEKVAVLEFELRKAKETIQALRANLTKAAEHEVPLQERKNYKSSPEIQEPIKPLEKRALNFLVNEFLLKNNYKLTSITFSDENDDQDFELWDDVGLNIPKPPDLLQLYRDFGNHQVTGKDLVDVASGVEEDELEALTPIISNLPPTLETPQPAENSMLVQKLEDKISLLNSEKWSLMEQIRRLKSEMDFLKNEHFAIPAVCDSVQPPLDQLPHKDSEDSGQHPDVNSSDKGKNTDIHLSISDEADSTIPKENSPNSFPRREREGMPPSSLSSKKTVHFDKPNRKLSPAFHQALLSFCRMSADSRLGYEVSRIADSEKSVMLMLGRCLPHIVPNVLLAKREELIPLILCTACLHPEPKERDQLLHILFNLIKRPDDEQRQMILTGCVAFARHVGPTRVEAELLPQCWEQINHKYPERRLLVAESCGALAPYLPKEIRSSLVLSMLQQMLMEDKADLVREAVIKSLGIIMGYIDDPDKYHQGFELLLSALGDPSERVVSATHQVFLPAYAAWTTELGNLQSHLILTLLNKIEKLLREGEHGLDEHKLHMYLSALQSLIPSLFALVLQNAPFSSKAKLHGEVPQIEVTRFPRPMSPLQDVSTIIGSREQLAVLLQLYDYQLEQEGTTGWESLLWVVNQLLPQLIEIVGKINVTSTACVHEFSRFFWRLCRTFGKIFTNTKVKPQFQEILRLSEENIDSSAGNGVLTKATVPIYATGVLTCYIQEEDRKLLVGFLEDVMTLLSLSHAPLDSLKASFVELGANPAYHELLLTVLWYGVVHTSALVRCTAARMFELTLRGMSEALVDKRVAPALVTLSSDPEFSVRIATIPAFGTIMETVIQRELLERVKMQLASFLEDPQYQDQHSLHTEIIKTFGRVGPNAEPRFRDEFVIPHLHKLALVNNLQIVDSKRLDIATHLFEAYSALSCCFISEDLMVNHFLPGLRCLRTDMEHLSPEHEVILSSMIKECEQKVENKTVQEPQGSMSIAASLVSEDTKTKFLNKMGQLTTSGAMLANVFQRKK [KIAA1468] | 50.8 | 51.1 | -0.0233 | -0.171 | -0.253 | -0.932
MAVDITLLFRASVKTVKTRNKALGVAVGGGVDGSRDELFRRSPRPKGDFSSRAREVISHIGKLRDFLLEHRKDYINAYSHTMSEYGRMTDTERDQIDQDAQIFMRTCSEAIQQLRTEAHKEIHSQQVKEHRTAVLDFIEDYLKRVCKLYSEQRAIRVKRVVDKKRLSKLEPEPNTKTRESTSSEKVSQSPSKDSEENPATEERPEKILAETQPELGTWGDGKGEDELSPEEIQMFEQENQRLIGEMNSLFDEVRQIEGRVVEISRLQEIFTEKVLQQEAEIDSIHQLVVGATENIKEGNEDIREAIKNNAGFRVWILFFLVMCSFSLLFLDWYDS [STX18] | 50.1 | 50.8 | 0.186 | -0.0525 | 0.0563 | -0.262
MTQAEIKLCSLLLQEHFGEIVEKIGVHLIRTGSQPLRVIAHDTGTSLDQVKKALCVLVQHNLVSYQVHKRGVVEYEAQCSRVLRMLRYPRYIYTTKTLYSDTGELIVEELLLNGKLTMSAVVKKVADRLTETMEDGKTMDYAEVSNTFVRLADTHFVQRCPSVPTTENSDPGPPPPAPTLVINEKDMYLVPKLSLIGKGKRRRSSDEDAAGEPKAKRPKYTTDNKEPIPDDGIYWQANLDRFHQHFRDQAIVSAVANRMDQTSSEIVRTMLRMSEITTSSSAPFTQPLSSNEIFRSLPVGYNISKQVLDQYLTLLADDPLEFVGKSGDSGGGMYVINLHKALASLATATLESVVQERFGSRCARIFRLVLQKKHIEQKQVEDFAMIPAKEAKDMLYKMLSENFMSLQEIPKTPDHAPSRTFYLYTVNILSAARMLLHRCYKSIANLIERRQFETKENKRLLEKSQRVEAIIASMQATGAEEAQLQEIEEMITAPERQQLETLKRNVNKLDASEIQVDETIFLLESYIECTMKRQ [POLR3C] | 50.5 | 51.1 | 0.132 | -0.0973 | 1.65 | 1.67
MAFWAGGSPSVVDYFPSEDFYRCGYCKNESGSRSNGMWAHSMTVQDYQDLIDRGWRRSGKYVYKPVMNQTCCPQYTIRCRPLQFQPSKSHKKVLKKMLKFLAKGEVPKGSCEDEPMDSTMDDAVAGDFALINKLDIQCDLKTLSDDIKESLESEGKNSKKEEPQELLQSQDFVGEKLGSGEPSHSVKVHTVPKPGKGADLSKPPCRKAKEIRKERKRLKLMQQNPAGELEGFQAQGHPPSLFPPKAKSNQPKSLEDLIFESLPENASHKLEVRVVRSSPPSSQFKATLLESYQVYKRYQMVIHKNPPDTPTESQFTRFLCSSPLEAETPPNGPDCGYGSFHQQYWLDGKIIAVGVIDILPNCVSSVYLYYDPDYSFLSLGVYSALREIAFTRQLHEKTSQLSYYYMGFYIHSCPKMKYKGQYRPSDLLCPETYVWVPIEQCLPSLENSKYCRFNQDPEAVDEDRSTEPDRLQVFHKRAIMPYGVYKKQQKDPSEEAAVLQYASLVGQKCSERMLLFRN [ATE1] | 51 | 50.8 | 0.211 | -0.352 | 0.0147 | 0.195
MALQTLQSSWVTFRKILSHFPEELSLAFVYGSGVYRQAGPSSDQKNAMLDFVFTVDDPVAWHSKNLKKNWSHYSFLKVLGPKIITSIQNNYGAGVYYNSLIMCNGRLIKYGVISTNVLIEDLLNWNNLYIAGRLQKPVKIISVNEDVTLRSALDRNLKSAVTAAFLMLPESFSEEDLFIEIAGLSYSGDFRMVVGEDKTKVLNIVKPNIAHFRELYGSILQENPQVVYKSQQGWLEIDKSPEGQFTQLMTLPKTLQQQINHIMDPPGKNRDVEETLFQVAHDPDCGDVVRLGLSAIVRPSSIRQSTKGIFTAGKSFGNPCVTYLLTEWLPHSWLQCKALYLLGACEMLSFDGHKLGYCSKVQTGITAAEPGGRTMSDHWQCCWKLYCPSEFSETLPVCRVFPSYCFIYQSYRCIGLQKQQHLCSPSSSPSLRQLLPSVLVGYFCCYCHFSKW [TAMM41] | 52.6 | 52.8 | 0.0094 | -0.163 | -1.37 | -1.38
